According to the supplement of paper PMC9170038:

Tested on: MS2 coat protein
Assay: apparent KD of MS2 coat protein; higher = weaker reporter binding
Settings: Eterna round: R107
Description: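 RNA-MaP round R107: designed RNA switches with theophylline, tryptophan, arginine or FMN aptamers are transcribed on-chip within common flanks. They are titrated with SNAP-549-labelled MS2 coat protein in RNA-MaP buffer (100 mM Tris pH 7.5, 80 mM KCl, 4 mM MgCl2), without ligand or with the indicated ligand. Median apparent KD per design.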

[1] = input ligand: theophylline 20 uM
[2] = input ligand: theophylline 2 mM
[3] = input ligand: tryptophan 2.4 mM

Row | Sequence | apparent KD of MS2 coat protein (input ligand: arginine 13.2 mM) | apparent KD of MS2 coat protein (input ligand: none) | apparent KD of MS2 coat protein [1] | apparent KD of MS2 coat protein [2] | apparent KD of MS2 coat protein [3]
1 | AAAGGUAGCAAUAAAUCUCCUACAUGUGAAGGAGCGCCCGAAAGGGCAGGUAGGUCGCACAUGAGGAUCACCCAUGUGAGCUACC [ArgEX 5 #SwitchBubble] | 18.9 nM | 15.2 nM | 20.9 nM | 21.2 nM | 15.3 nM
2 | AAUAGUCCUCGACAUGAGGAUCACCCAUGUCGAGGACCGGUACGGCCGCCACUCGACAUGAGGAUCACCCAUGUUGAGUGAUAAA [prototype 1] | 7.58 nM |  | 8.26 nM | 7.82 nM | 
3 | UGUAACAUGAGGAUCACCCAUGUAAGUGAUACCAGAUAAGUAGUAGUCCCUUGGCAGCAUAUUGGGAAAGUGUAUAGUGUAUAUG [Same State - Theophylline A (Freestyle 4)] | 48.9 nM |  | 72.3 nM |  | 58.4 nM
4 | AUAACAUGAGGAUCACCCAUGUAAGCUGAAGGAGCGCUGGAAACAGCAGGUAGGUCGCAGCAUGUUUCCAAUCCUCAUGGAAACA [(M1)-(M2)-(Arg1)-(Arg2)-(A)'-(M)'-(A)''_Design9] | 53.4 nM | 152 nM | 159 nM | 136 nM | 105 nM
5 | CUGCCUGCCUCACAUGAGGAUCACCCAUGUCGAGGACCGGUACGGCCGCCACUCGUCGUCGGUAAUACAGGCAUUGAAUAAUAUA [Esgeusla] | 9.88 nM |  | 14.5 nM | 11.9 nM | 
6 | CACGAAAGAUCGGCCGCCACUCAUGUAGCUUACAUGAGGAUCACCCAUGUAUUUUCUUUCUUUUAGAGGACCGGGAUCGAGCGUG [#02 Same State - Tryptophan B] | 33.6 nM |  | 65.2 nM | 43.5 nM | 
7 | GCACCAGGUACGGAUACCAGCUGCCACAGUUACAUGAGGAUCACCCAUGUGAUAAAGUGUAGCCCUUGGCAGCUGUACCUGGUGC [SSThB NP+V+V2 #6 +-Same Structure] | 93.2 nM |  | 69.1 nM |  | 125 nM
8 | UCACAUGAGGAUCACCCAUGUGUCAGAGAAGGAGCGGCCGCAAGGCCAGGUAGGUCGCUCGGGUAGCGUGAGGAUCACCCGUGUG [#1 Exclusion - Arginine A Attempt #11 (Inspired by cyborg)] | 31.8 nM | 65.8 nM | 175 nM | 77.5 nM | 45.1 nM
9 | UAUAAAAUAACAGAUACCAGCGUGUUAUAAAACAUGAGGAUCACCCAUGUAGUGAUCAAGCGCCCUUGGCAGCUGGUAUUUUAUA [7.B] | 97.2 nM |  | 150 nM |  | 142 nM
10 | UGUUUUGUGAUGGAUACCAGCAGAGAAAACGUUUAUCCUAACAUGAGGAUCACCCAUGUAUGCCCUUGGCAGCUGUUGUGGGAUA [8.R] | 27.2 nM |  | 43.9 nM |  | 27.9 nM
11 | GGAUAUAGGGAACCGUAUCCGAAACCUGAAGGAGCGGCCGAAAGGCCAGGUAGGUCGCGGGAACAUGAGGAUCACCCAUGUAUUC [dancer] | 31.1 nM | 57.3 nM | 71.8 nM | 59.2 nM | 55.4 nM
12 | CCACUUUCUUUUAUCUUUCUUUCUUUGUUACGAGGACCGGUACGGCCGCCACUCGUGGUGUGUGGUACAUGAGGAUCACCCAUGU | 23.1 nM |  | 34.9 nM | 32.9 nM | 
13 | AGAUCGCUGACCGCGGGAGAUGCGCAGGAUACCAGCCUAAUGUCCGGCCCUUGGCAGCCUGUAACAUGAGGAUCACCCAUGUGAA [theeternabot_exclusion_MS2_Theo_A_29] | 15 nM |  | 20.9 nM |  | 18.1 nM
14 | AAACAUUGCUCAGAUACCAGACAUGAGGAUCACCCAUGUACCAAGGUACCCGAAAGGAAUGUCCCUUGGCAGCUGAGCAAUGAAA [MAT - Exclusion Theophlline B - Mod of Eli - D20] | 10.9 nM |  | 11.9 nM |  | 9.51 nM
15 | GAAUAAAGUAGAACACAAGACUCCUGAGAAGGAGCGCAGUCAACUGCAGGUAGGUCGCUCAGGAACACAUGAGGAUCACCCAUGU [Disoonlate] | 16.9 nM | 26.6 nM | 30.4 nM | 32.3 nM | 23.9 nM
16 | CUAUAUAGAAAACUAUAUAGAGUGGGUGAACGAGGACCGGUACGGCCGCCACUCGGACAUGAGGAUCACCCAUGUCCAUGUGAAA [AstrosExyTryA#25] | 13.1 nM | 14.8 nM | 13 nM | 25 nM | 29.4 nM
17 | GUCUCUGAGAGAAGGAGCGUGAAGACAUGAGGAUCACCCAUGUAGAGGCGCCGACGGCGUUCGCAGGUAGGUCGCUCUCAGAGAC [#1 Same State - Arginine B Attempt #19 (HarryS)] | 38.4 nM | 22 nM | 35 nM | 17.1 nM | 23.7 nM
18 | UCAUGAGUUUCGGAUACCAGUGAUGUCGAUACAUGAGGAUCACCCAUGUUAGAGGAUGUACACCCUUGGCAGCCGGGUGUGGCGG [ooimullin] | 33.7 nM | 143 nM | 102 nM | 102 nM | 113 nM
19 | UGUCAGCGAAAGUUGACAUGUCUUACCGGUCGAGGACCGGUACGGCCGCCACUCGAUCUCUCGCACAUGAGGAUCACCCAUGUUG [SS Tryp A #22] | 19.3 nM |  | 29 nM | 26.5 nM | 
20 | GGGAAUGAACGUGAUACCAGAGAUCCGGUCUCCGUCACUCUACAUGAGGAUCACCCAUGUCUCCCUUGGCAGCACCGUCAUCGGG [Exclusion Theophylline B GF 29] | 32.4 nM |  | 43.3 nM |  | 29 nM
